Measured values: patent US20100190710A1, “IL-23 RECEPTOR ANTAGONISTS AND USES THEREOF” (Valorisation HSJ, Societe en Commandite, priority 2007, published 2010)
“Also recorded” adds a separate entry of the source. One block for each molecule: values may come before it. Square brackets hold non-standard residues; d marks the D form. Ends that are not written are not given here.

Key:
IL-23 receptor = target: T1, IL-23 receptor (Homo sapiens, UniProt Q5VWK5); assay: IL-23-induced STAT3 phosphorylation in PMA-activated HL-60 monocytes (Western blot); assay type: cell-based; parameters: endogenous in cells; details: PMA-activated HL-60 human monocytes; peptide 1 μM, 30 min pre-incubation; IL-23 10 ng/ml, 15 min
T1 sequence (Q5VWK5 24-629): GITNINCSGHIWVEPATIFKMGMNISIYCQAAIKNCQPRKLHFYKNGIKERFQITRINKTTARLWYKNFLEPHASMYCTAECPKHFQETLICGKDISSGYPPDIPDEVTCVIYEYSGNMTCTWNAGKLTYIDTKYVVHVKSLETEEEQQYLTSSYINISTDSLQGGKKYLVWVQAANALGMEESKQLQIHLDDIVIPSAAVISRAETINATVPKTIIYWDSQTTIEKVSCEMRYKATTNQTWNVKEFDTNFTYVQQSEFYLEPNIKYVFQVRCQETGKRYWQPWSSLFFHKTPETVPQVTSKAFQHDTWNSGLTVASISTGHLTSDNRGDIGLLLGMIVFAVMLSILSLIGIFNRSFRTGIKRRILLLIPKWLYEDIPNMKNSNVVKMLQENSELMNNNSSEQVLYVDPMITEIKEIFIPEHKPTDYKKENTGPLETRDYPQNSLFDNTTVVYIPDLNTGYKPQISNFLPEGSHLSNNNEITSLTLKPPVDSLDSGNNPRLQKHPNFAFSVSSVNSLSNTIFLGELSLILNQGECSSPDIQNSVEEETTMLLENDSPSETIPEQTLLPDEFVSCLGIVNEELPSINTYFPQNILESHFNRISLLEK
Protocol: FIG. 2 is a graph showing the results of efficacy screening of peptides designed from the IL-23 receptor. HL-60 human monocytes were pre-incubated for 30 minutes with the particular peptides (1 μM) and stimulated for 15 minutes with IL-23 (10 ng/ml). Western Blot analysis of phosphorylated-STAT3 and total STAT3 was performed on cell lysates. Immunoblot densitometry was measured using ImagePro4+ software. […] FIGS. 3A and 3B are graphs showing inhibition of IL-23-induced STAT3 phosphorylation and TNFα generation. […] Western Blot analysis was performed on cell lysates, and immunoblot densitometry was measured using ImagePro4+ software. […] TNFα production was quantified by ELISA 24 hours after stimulation with IL-23 using the Quantikine ELISA Kit (R&D systems). […] D-peptides 2303, 2305, 2307 and 2309 (1 μM) inhibit IL-23-induced STAT3 phosphorylation in phorbol 12-myristate 13-acetate (PMA)-activated human monocytes (HL-60) (FIG. 2).

IL-23R = target: T2, IL-23R (Mus musculus, UniProt Q8K4B4); assay: IL-23-induced STAT3 phosphorylation in freshly isolated splenocytes (Alpha Screen SureFire p-STAT-3); assay type: cell-based
T2 construct: Spleens were sterilely removed from mice, sliced, and mashed in the presence of PBS buffer; from tissue; host or cells: mouse spleen: freshly isolated splenocytes, and CD4+ cells differentiated into TH17 cells
T2 sequence (Q8K4B4 24-644): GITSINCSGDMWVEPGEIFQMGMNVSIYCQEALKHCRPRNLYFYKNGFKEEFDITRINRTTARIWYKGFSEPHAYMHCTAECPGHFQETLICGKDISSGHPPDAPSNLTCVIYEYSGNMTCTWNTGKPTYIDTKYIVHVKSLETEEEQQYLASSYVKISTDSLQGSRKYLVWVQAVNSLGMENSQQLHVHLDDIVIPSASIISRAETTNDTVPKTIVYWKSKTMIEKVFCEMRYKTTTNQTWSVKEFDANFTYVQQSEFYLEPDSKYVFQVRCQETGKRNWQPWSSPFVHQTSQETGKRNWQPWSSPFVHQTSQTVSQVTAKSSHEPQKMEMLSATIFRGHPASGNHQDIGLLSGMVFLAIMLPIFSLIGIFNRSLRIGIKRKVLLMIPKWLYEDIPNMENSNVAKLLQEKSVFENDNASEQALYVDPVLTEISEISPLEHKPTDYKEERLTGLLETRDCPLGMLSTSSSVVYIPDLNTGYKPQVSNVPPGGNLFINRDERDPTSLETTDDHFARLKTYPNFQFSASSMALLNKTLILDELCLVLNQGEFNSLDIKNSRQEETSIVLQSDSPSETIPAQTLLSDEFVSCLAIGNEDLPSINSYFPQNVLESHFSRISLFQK
Protocol: Spleens were sterilely removed from mice, sliced, and mashed in the presence of PBS buffer, 2% fetal bovine serum, and 1 mM EDTA. Tissue was allowed to pass through a number 26 syringe and was filtered through a 70 μm mesh nylon strainer. Cells were cultured with non-essential amino acids, 2 μg/ml of anti-CD3, and 20 μg/ml of anti-CD-28 as survival and differentiation factors.
Splenocytes or TH17 cells were distributed in 384-well plates (Optiplate; Perkin Elmer) (100,000 cells/well). Cells were pre-incubated for 30 minutes with different concentrations of peptide APG-2305 or APG-2309 and incubated with 25 ng/ml of IL-23 (R&D systems) for 10 minutes. STAT3 phosphorylation was determined with the kit Alpha Screen SureFire p-STAT-3 assay from Perkin Elmer according to manufacturer's instructions. Briefly, after incubation with IL-23, cells were lysed and contacted with (1) protein A acceptor conjugated beads coated with anti-p-STAT-3 (Tyr705) and (2) streptavidin-coated donor beads. The resulting signal was measured with a Perkin Elmer Wallac En vision 2104 Multilabel reader. Graphs were generated using GraphPrism 4 software.
The effect of peptide APG-2305 and APG-2309 derivatives on IL-23-induced STAT3 phosphorylation was determined using CD-1 mice freshly isolated splenocytes and the Alpha Screen p-STAT3 assay (see above materials and methods) (FIGS. 6 and 7). […] As described herein, based on the efficacy of derivatives, we have identified regions in APG-2305 and APG-2309 peptides that are important for their ability to affect IL-23R activity.

[1] = target: T3, mouse IL-23 receptor (IL-23R) on mouse splenocytes and differentiated TH17 cells (mouse, UniProt Q8K4B4 24-644); assay: cell-based or functional assay
T3 sequence (looked up): T2 sequence (Q8K4B4 24-644)

[2] = target: T4, human IL-23 receptor (IL-23R) on PMA-activated HL-60 human monocytes (human, UniProt Q5VWK5 24-629); assay: cell-based or functional assay
T4 sequence (looked up): T1 sequence (Q5VWK5 24-629)

[3] = mouse splenocytes (FIGS. 6 and 7)

Molecule: DLSSGYPPDI [Peptide 2301]
effect on IL-23-induced STAT3 phosphorylation (IL-23 receptor): agonistic properties; also recorded: agonist of IL-23R biological activity

Molecule: EEQQYL [Peptide 2305-5]
activity of derivative compared to parent peptide, STAT3 phosphorylation assay (IL-23R; [3]): measurable loss of activity

Molecule: EQQYL [Peptide 2305-6]
activity of derivative compared to parent peptide, STAT3 phosphorylation assay (IL-23R; [3]): measurable loss of activity

Molecule: KKYLVWVQ [Peptide 2307]
effect on IL-23-induced STAT3 phosphorylation (IL-23 receptor): antagonize IL-23-induced STAT3 phosphorylation; also recorded: demonstrable efficacy; also recorded: inhibit

Molecule: LPDEVTCV [Peptide 2303]
effect on IL-23-induced STAT3 phosphorylation (IL-23 receptor): antagonize IL-23-induced STAT3 phosphorylation; also recorded: demonstrable efficacy; also recorded: inhibit

Molecule: LVLDDLHLQLQKSEEMGLANAAQV (not fully specified (some residues); also: D-amino acids, extent not given here) [Peptide 2309-2-1]
activity of derivative compared to parent peptide, STAT3 phosphorylation assay (IL-23R; [3]): better efficacy than the parent 2309 peptide

Molecule: TEEAQQYL [Peptide 2305-1]
activity of derivative compared to parent peptide, STAT3 phosphorylation assay (IL-23R; [3]): total loss of activity

Molecule: TEEEQQ [Peptide 2305-9]
activity of derivative compared to parent peptide, STAT3 phosphorylation assay (IL-23R; [3]): abolished the activity

Molecule: TEEEQQY [Peptide 2305-8]
activity of derivative compared to parent peptide, STAT3 phosphorylation assay (IL-23R; [3]): abolished the activity

B1: APG-2305-13 (peptide)
peptide: TEEEAAYL
inhibition of IL-23-induced STAT3 phosphorylation in mouse splenocytes (FIG. 6), change relative to parent 2305 [1]: 25%

Second part, led by results:

activity of derivative compared to parent peptide, STAT3 phosphorylation assay (IL-23R; [3]): increases the activity
Molecule: ESKQLQL [Peptide 2309-3]

activity of derivative compared to parent peptide, STAT3 phosphorylation assay (IL-23R; [3]): increases the activity
Molecule: MAESKQLQL [Peptide 2309-1]

activity of derivative compared to parent peptide, STAT3 phosphorylation assay (IL-23R; [3]): increased the activity
Molecule: TEEE [Peptide 2305-11]

activity of derivative compared to parent peptide, STAT3 phosphorylation assay (IL-23R; [3]): increased the activity
Molecule: TEEEQ [Peptide 2305-10]

inhibition of STAT3 phosphorylation by derivative (IL-23R; mouse splenocytes (FIG. 7)): 100% | increase in activity relative to the parent peptide (IL-23R; [3]): 50%
Molecule: VQAANALGMEESKQLQLHLDDLVL [Peptide 2309-1-1, extended region of peptide 2309 covering part of the loop in D3 domain of IL-23R]

IC50 for IL-23-induced STAT3 phosphorylation in mouse splenocytes (25 ng/ml mouse IL-23) [1]: 2 nM | inhibition of IL-23-induced STAT3 phosphorylation in PMA-activated HL-60 monocytes, IC50 [2]: 2 nM
B2: peptide APG-2309 (peptide)
peptide: [dM][dE][dE][dS][dK][dQ][dL][dQ][dL]
inhibition of IL-23-induced tumor necrosis factor (TNF) formation in PMA-activated HL-60 monocytes (ELISA), IC50 [2]: 1.6 nM
